In article PMC9369017:

Columns and labels:
[1] = biological target: hexahistidine tagged RBD WT (SARS CoV-2, isolate Wuhan-Hu-1, aa residues 319-541) (SARS-CoV-2) (UniProt P0DTC2); assay: peptide or protein array
[2] = biological target: SARS-CoV-2 spike protein on Ramos-S cells (SARS-CoV-2) (UniProt P0DTC2); assay: flow cytometry on cells
EflACE2-Fc-WT (human) = EflACE2-Fc-WT (human) (UniProt Q9BYF1); assay: BLI

| Substance | IC50 [1] | median fluorescence intensity [2] | Kd (EflACE2-Fc-WT (human)) |
| --- | --- | --- | --- |
| EflACE2-Fc-WT (from UniProt Q9BYF1 19-740) (Fc fusion) | 10 nM | 19600 | – |
| SARS-CoV-2 spike RBD (analyte of the BLI) (from UniProt P0DTC2) (domain or fragment) | – | – | 0.7 nM |
| flACE2-Fc-WT (from UniProt Q9BYF1 19-740) (Fc fusion) | 80 nM | 17200 | – |
| trACE2-Fc WT (from UniProt Q9BYF1 19-615) (Fc fusion) | 114 nM | 15500 | – |
| trACE2-Fc-kif (from UniProt Q9BYF1 19-615) (Fc fusion) | – | 16400 | – |
